{
  "source": "the DeepSol protein solubility set",
  "data": [
    {"assay": "soluble on expression in E. coli; label from the status in PepcDB or PDB records", "values": [
      {"sequence": "PEFMVTTEPALADLQEQLYNGNEKSQLAAMSTLSTAGTEGYHLLQEFLKDSATFSPPPAPWIRGQAYRLLFHSPEASVQAFLQQHYPQGVIPLRSDRGVDYQELAKLFVAEKFEAADRLTTQKLCELAGPLAQKRRWLYFTEVEQLPIPDLQTIDQLWLAFSLGRFGYSVQRQLWLGCGQNWDRLWEKIGWRQGKRWPRYPNEFIWDLSAPRGHLPLTNQLRGVQVLNALLNHPAWTA", "soluble on expression in E. coli": "soluble"},
      {"sequence": "PEKPAKTQKTSLDEALQWRDSLDKLLQNNYGLASFKSFLKSEFSEENLEFWIACEDYKKIKSPAKMAEKAKQIYEEFIQTEAPKEVNIDHFTKDITMKNLVEPSLSSFDMAQKRIHALMEKDSLPRFVRSEFYQELI", "soluble on expression in E. coli": "soluble"},
      {"sequence": "PFKESQARGLLQDNMANSYNGGDFEDGLLNLSKEVFPTDKYLYQDGQFLDKKTINAYLNPKYTKREIDKMSEKDKKDKKANENLGLNPSHEGETNPEKIAEKSPAYLSNILEQDFYGGGDTKGKNIKGMTIGLAMNSVYYYKKEKDGPTFSKKLDDSEVKKQGKQMASEILSRLRENDDLKDIPIHFAIYKQSSEDSITPGEFITQATAEKSQTKLNEWHNINEKSALLPSSTAADYDENLNNNFKQFNDNLQSYFSNFTQAVGKVKFVDKKPQRLVVDLPIDYYGQAETIGITQYVTEQANKYFDKIDNYEIRIKDGNQPRALISKTKDDKEPQV", "soluble on expression in E. coli": "not soluble"},
      {"sequence": "PFSWMKFVVISRTDLEENGREILIHECAHIRKHHSWDLLIADICIFFQWFNPGAWLLKQELQNIHEYEADEAVINEGINARDYQLLLI", "soluble on expression in E. coli": "not soluble"},
      {"sequence": "PGGPEEQWQRAIHERGEAVCPTCNVVTRKTLVGLKKHMEVCQKLQDALKCQHCRKQFKSKAGLNYHTMAEHSAKPSDAEASEGGE", "soluble on expression in E. coli": "soluble"},
      {"sequence": "PHDDSYWDRVLTHGKNCIKYTPNNAASLHNAIRLLNESPWMKVTMGLEALNVAQLYSAERCYMPIAQYLCSEHAPTSHHGAKARNNVKGYDHV", "soluble on expression in E. coli": "not soluble"},
      {"sequence": "PIFTLNTNIKATDVPSDFLSSTSALVGNILSKPGSYVAVHINTDQQLSFGGSTNPAAFGTLMSIGGIEPSRNRDHSAKLFDHLNTKLGIPKNRMYIHFVNLNGDDVGWNGTTF", "soluble on expression in E. coli": "soluble"},
      {"sequence": "PKVSVIMTSYNKSDYVAKSISSILSQTFSDFELFIMDDNSNEETLNVIRPFLNDNRVRFYQSDISGVKERTEKTRYAALINQAIEMAEGEYITYATDDNIYMPDRLLKMVRELDTHPEKAVIYSASKTYHLNENRDIVKETVRPAAQVTWNAPCAIDHCSVMHRYSVLEKVKEKFGSYWDESPAFYRIGDARFFWRVNHFYPFYPLDEELDLNYITDQSIHFQLFELEKNEFVRNLPPQRNCRELRESLKKLGMG", "soluble on expression in E. coli": "soluble"},
      {"sequence": "PLENQELTPLFGQPDWFLGILPSQAGNLKVLDTARWVMPERYRDDYRDGLKYVISVQGYEWGLAVHQVSRSIRLDPAEVKWRSQRSQRPWLAGTVIEH", "soluble on expression in E. coli": "not soluble"},
      {"sequence": "PMILGYWNVRGLTHPIRLLLEYTDSSYEEKRYAMGDAPDYDRSQWLNEKFKLGLDFPNLPYLIDGSRKITQSNAIMRYLARKHHLCGETEEERIRVDVLENQAMDTRLQLAMVCYSPDFERKKPEYLEGLPEKMKLYSEFLGKQPWFAGNKITYVDFLVYDVLDQHRIFEPKCLDAFPNLKDFVARFEGLKKISDYMKSGRFLSKPIFAKMAFWNPK", "soluble on expression in E. coli": "soluble"},
      {"sequence": "PNFSHWGPPRIVEIFREPNVSLGISIVGGQTVIKRLKNGEELKGIFIKQVLEDSPAGKTNALKTGDKILEVSGVDLQNASHSEAVEAIKNAGNPVVFIVQSLSSTPRVIP", "soluble on expression in E. coli": "soluble"},
      {"sequence": "PNSPINKLVLNDIGPQIPIHGLRRIAKYAGKAPDFKSLEEAKQHFKASYADFGITNEKQWDIFTKNSVEQRGPNLYVTKMDPAIKKSKSILQIISEFFRHPHKALEGIFYDINLWSIWKQIKCPVIVIHGVNSDILTSEIITQMKKTHALTEVYEVENAGHAPALLDLTVHQRIEDWLATH", "soluble on expression in E. coli": "not soluble"},
      {"sequence": "PPFTGDERASIQRACEAGVEKIIVPATEAAHFPRVLALAARFPSLYAALGLHPIVIERHADDDSDKLQQALAQQQNVVAVGEIGLDLYRDDPQFARQERFLDAQLQLAKRYDLPVILHSRRTHDKLAMHLKRQDLPRTGVVHGFAGSLQQAERFVRLGYKIGVGGTITYPRASKTRDVMARLPLDALLLETDAPDMPLKGFQGQPNRPEQAARVFDALCELRPE", "soluble on expression in E. coli": "not soluble"},
      {"sequence": "PQFSLWKRPVVTAYIEGQPVEVLLDTGADDSIVAGIELGNNYSPKIVGGIGGFINTLEYKNVEIEVLNKKVRATIMTGDTPINIFGRNILTALGMSLNL", "soluble on expression in E. coli": "soluble"},
      {"sequence": "PRLEFEKPVIELQTKIAELKKFTQDSDMDLSAEIERLEDRLAKLQDDIYKNLKPWDRVQIARLADRPTTLDYIEHLFTDFFECHGDRAYGDDEAIVGGIAKFHGLPVTVIGHQRGKDTKENLVRNFGMPHPEGYRKALRLMKQADKFNR", "soluble on expression in E. coli": "not soluble"},
      {"sequence": "PSTLELLKDVHLGLPVPCHDPARLALLSGHYLYYHYGCDGLDDRGWGCGYRTLQTLCSWPGGQSSGVPGLPALQGALEAMGDKPPGFRGSRNWIGCVEASLCLEHFGGPQGRLCHLPRGVGLRGEEERLYSHFTTGGGPVMVGGDADAQSKALLGICEGPGSEVYVLILDPHYWGTPKNRCELQAAGWVGWQKVKSVFDSNSFYNLCFTRLEHHHHHH", "soluble on expression in E. coli": "soluble"},
      {"sequence": "PTKLETFPLDVLVNTAAEDLPRGVDPSRKENHLSDEDFKAVFGMTRSAFANLPLWKQQNLKKEKGLF", "soluble on expression in E. coli": "soluble"},
      {"sequence": "PTPKTELVQKFRVQYLGMLPVDRPVGMDTLNSAIENLMTSSSKEDWPSVNMNVADATVTVISEKNEEEVLVECRVRFLSFMGVGKDVHTFAFIMDTGNQRFECHVFWCEPNAANVSEAVQAACSGPSSGIEGRGSSGSSGSSGSSGDAAVTPEERHLSKMQQNGYENPTYKFFEQMQN", "soluble on expression in E. coli": "soluble"},
      {"sequence": "PYARFQSAMFDKDTLIVSYDAERGEPRGARKKTVNKEEAGLGDCINCAMCVQVCPVGIDIRNGLQYQCIGCAACIDACDEIMDKMGYPRGL", "soluble on expression in E. coli": "not soluble"},
      {"sequence": "QAAELEITVTNATKGIYFTPLIVAAHDSDLHMFKVGESATAELEAMAEGGDISGLSTVIGNAGGAVVENPAGGILNPGAATTFTLDSGDHG", "soluble on expression in E. coli": "not soluble"},
      {"sequence": "QAKQTMQTLSTLNELGSKVEEVRNFFNFELPYRVKHVDQVSLKLQLVYAVRLQLESEVSDANGPDVTQLLYSTDRFLESARAFIGSDGELVSLAEQLHTSRGAENNSQQIENMYYRLGALVLESIFSDSNTNTDTYRELDLLFIESDSLSTGERSAFQRRLAQTSSVLAANAQGSYLANQLLKPDFPNQLVSMKATLEQK", "soluble on expression in E. coli": "not soluble"},
      {"sequence": "QDSLPDTKASGPAHSKEVPALTAVETGATNPLAPSDTVQTRHVVQRRSRSESTIESFFARGACVAIIEVDNEQPTTRAQKLFAMWRITYKDTVQLRRKLEFFTYSRFDMEFTFVVTANFTNANNGHALNQVYQIMYIPPGAPTPKSWDDYTWQTSSNPSIFYTYGAAPARISVPYVGLANAYSHFYDGFAKVPLKTDANDQIGDSLYSAMTVDDFGVLAVRVVNDHNPTKVTSKVRIYMKPKHVRVWCPRPPRAVPYYGPGVDYRNNLDPLSEKGLTTY", "soluble on expression in E. coli": "soluble"},
      {"sequence": "QGQFFREIENLKEYFNASSPDVAKGGPLFSEILKNWKDESDKKIIQSQIVSFYFKLFENLKDNQVIQRSMDIIKQDMFQKFLNGSSEKLEDFKKLIQIPVDDLQIQRKAINELIKVMNDLS", "soluble on expression in E. coli": "soluble"},
      {"sequence": "QILSPNYKARADSNAFYQKPVYPSRGVIYDRNGELLVYNEPAYDLVAVTKEVGEFDTLALCQTLNVEPEYVRKRFQDIRDRRINPGYSPYVPQLLLAQLNPREAGRFQEQLFKFPGFSIRPRAIRQYKYHGAAHVLGYLSEANMRDLERDSSLIAGDYVGRSGIERQYEKTLRGEKGIEVLLRDARGRIKGHYSDGKYDSPAIPGRDLTLSIDSKLQTLGEQLMQGKRGAIVMIEPETGEVLCLVSSPSYDPSLLAGKDRGKNHLEMEHDRNKPLYARAIQATYPPGSTFKPAQGAIFLQEGVIRPTDAFSCYHGFPPLNNRPACHSHGSP", "soluble on expression in E. coli": "not soluble"},
      {"sequence": "QLPSYRFNPNNHQSEQTLCVVCMCDFESRQLLRVLPCNHEFHAKCVDKWLKANRTCPICRAD", "soluble on expression in E. coli": "soluble"},
      {"sequence": "QNFLNDQFVIDSIVSAINPQKGQAMVEIGPGLAALTEPVGERLDQLTVIELDRDLAARLQTHPFLGPKLTIYQQDAMTFNFGELAEKMGQPLRVFGNLPYNISTPLMFHLFSYTDAIADMHFMLQKEVVNRLVAGPNSKAYGRLSVMAQYYCNVIPVLEVPPSAFTPPPKVDSAVVRLVPHATMPHPVKDVRVLSRITTEAFNQRRKTIRNSLGNLFSVEVLTGMGIDPAMRAENISVAQYCQMANYLAENA", "soluble on expression in E. coli": "soluble"},
      {"sequence": "QQRFLNIATDGRLSPKQKSNFLALEAEACIPYMPISEALREAMSDGVICDMFEGHAPFKPRYVLPDYAKFLSQGSEYLELSPAEDFDDALN", "soluble on expression in E. coli": "not soluble"},
      {"sequence": "QQRQRRKRKELTNLIRRFRNGAESLPDAVVVFRAEGNIVWCNRLAQHLLGFHWPEDSGQPISNLIRTPDFIKYLNKKDFSEPLEMRSPLNVERMLELRIVPYTEGEHLMVVRDVS", "soluble on expression in E. coli": "soluble"},
      {"sequence": "QTSIPTIFVGGDYARAFSTDGFVHRLTAAHLMTKGLVVHVSHAGHVTVQQFGPLKNNPTIQVIFADNHHAKRQARQFATVMQGLAKRYHVTRYNAVGHSSGGNIIFDYLTAQVPQRAQINKFVTIGSTYPGLTTQQLNRLPRSLPILNIAGHVWHTSGDGGVNLQAVLKFSHQLLAAGWSPKTQIIHGSPLTASHSMLHINPQVDLLIIQFLYGN", "soluble on expression in E. coli": "not soluble"},
      {"sequence": "QVQLQESGGGLVQPGGSLRLSCAASGFAFSGYAMSWVRQAPGKGLEWVSGINRDGSTSYTAPVKGRFTISRDNAKNILYLQMNSLRPEDTAVYYCAKWLGGRDWYDRGQGTQVTVS", "soluble on expression in E. coli": "soluble"},
      {"sequence": "QVQLVQSGAEVKKPGSSVKVSCKASGYTFSSNVISWVRQAPGQGLEWMGGVIPIVDIANYAQRFKGRVTITADESTSTTYMELSSLRSEDTAVYYCASTLGLVLDAMDYWGQGTLVTVSSASTKGPSVFPLAPCSRSTSESTAALGCLVKDYFPEPVTVSWNSGALTSGVHTFPAVLQSSGLYSLSSVVTVPSSSLGTKTYTCNVDHKPSNTKVDKRVESKYGPP", "soluble on expression in E. coli": "soluble"},
      {"sequence": "QYCWQHRFPTGYFSICDRYMNGTCPEGNSCKFAHGNAELHEWEERRDALKMKLNKA", "soluble on expression in E. coli": "soluble"},
      {"sequence": "RAKQQAAKSERRVRELTEATNDILWEFTADLSEVLVINSAYEDIWGRSVAKLRENPHDFLNGIHPEDRELMKDTMQSLMDGESADVECRVNATEEYQRWVWIQGEPITNDAGETVRVAGFARDIT", "soluble on expression in E. coli": "soluble"},
      {"sequence": "RDDSTLVIGHNTGALAHRINDPQHAGSIVTAIKQETDLDVTIECVVGTDPKAAGFSEPENKKVWNPEPKPEPKPEPKPEPKPEPEPAPASDNVWGAPAPLGGGQPATPPPPPVERFSPAKATAPQPPAAPQPVQEAPKPRWQQAAERGMRKMEERAKRPSFSDGVPLPPEPEEPDVPPDLYGYPADEGIPEPQTPQATSNYVVDHDEEEEMVREAAQGVGNRDHRDAMTVAVDILSEELGARQL", "soluble on expression in E. coli": "not soluble"},
      {"sequence": "RDPEGLLGDKEDLGITCALIPTDVKGVEIGNRHFPLNVPFQNGPTRGKDIFVPIDFIIGGEKMAGQGWRMLVECLSVGRGITLPSNSTGGIKSAAMATGAYSRIRRQFKQPIGHMEGVEEPLARLGGNAYVMDAASNLTVAGIDLGEKPSVISAIVKYHCTHRGQQSIIDAMDIVGGKGICLGPSNFLARGYQGSPIAVTVEGANILTRSMIIFGQGAIRCHPYVLEEMNAAYSEASDAVEKFDKALAGHVSFTMSNLVRSIWFGLSDGLGSSAPTKDATKRYYQQLNR", "soluble on expression in E. coli": "not soluble"}
    ]}
  ]
}
